Assay results taken from PMC10444775 (Scientific Reports, 2023).

Molecular target: SARS-CoV-2 PreS Spike ECD protein, biotinylated via a C-terminal Avi tag (SARS-CoV-2, Wuhan wild type, K986P | V987P | 682-685 RRAR to GSAS, biotin on the Avi tag)
Test: SPR
Conditions: both partners purified

B1: 7A9 VHH (VHH)
VHH: QVQLVESGGGLVQAGGSLRLSCSASGGTASRSAMGWFRQAPGKEREFVAGISRRNSGSTYVADSYEDSVKGRFTISRDNAKNTIYLQMNSLKPEDTAVYYCAAEPTLGWYVPRRSVEYEYWGQGTQVTVSS
notes: also called VHH 7A9; 7A9 VHH monomer; source: ExpiCHO, transiently transfected, purified
Kd: 0.22 nM
